Paper PMC5389731 (Nucleic Acids Research, 2017)

Legend:
[1] = target: T1, toxin CcdB2 (F plasmid CcdB dimer) (E. coli F plasmid, UniProt P62554 1-101); assay: ITC
[2] = target: T2, CcdA2 (antitoxin dimer);CcdB2 (toxin dimer) (Escherichia coli (F …, UniProt P62552;P62554 1-72;1-101, |)); assay: EMSA
[3] = target: T2, CcdA2 (antitoxin dimer);CcdB2 (toxin …); assay: ITC
[4] = target: T1, toxin CcdB2 (F plasmid CcdB dimer); assay: ITC; remark: listed apart in the source
[5] = target: T2, CcdA2 (antitoxin dimer);CcdB2 (toxin …); assay: EMSA; remark: listed apart in the source

RRLRAERWKAENQEGMAEVARFIEMNGSFADENRDW (peptide, UniProt P62552 37-72, looked up) [CcdAC, truncated CcdA comprising the entire C-terminal domain (CcdA^37-72)]
binding result [1]: binds

B1: Ccd3 (3 binding sites) (dsDNA)
DNA 1: ACGTGCGGTATAAGAATATATACTGATATGTATACCCGAATA
DNA 2: TATTCGGGTATACATATCAGTATATATTCTTATACCGCACGT
binding result [2]: binds

B2: CcdITC (3 binding sites) (dsDNA)
DNA 1: GCGGTATAAGAATATATACTGATATGTATACCC
DNA 2: GGGTATACATATCAGTATATATTCTTATACCGC
binding result [3]: binds

B3: antitoxin CcdA2 (F plasmid CcdA dimer, full length) (natural protein, E. coli F plasmid, UniProt P62552 1-72, looked up)
chain: MKQRITVTVDSDSYQLLKAYDVNISGLVSTTMQNEARRLRAERWKAENQEGMAEVARFIEMNGSFADENRDW
difference between the high and low affinity binding constants [4]: ~1e+06 fold

B4: Random (dsDNA)
DNA 1: TGCCCAAGTGATGCTAAACAAGACTTAGCTGGTTCCTGTGTT
DNA 2: AACACAGGAACCAGCTAAGTCTTGTTTAGCATCACTTGGGCA
binding result [5]: no binding
